{
  "source": "patent US20250250301A1",
  "about": "“DE NOVO DESIGNED BINDERS TARGETING HUMAN EPCAM AND PDL1 RECEPTORS” (University of Washington, priority 2022, published 2025)",
  "molecules": {"B1": {"name": "PDL1Bind_cb6 (designed binder)", "chain": "DEDTDRVFELLNEFNELREEGDPERAREVLEEAERLAKELSDPTLESFVQAIKRVY", "notes": "Optimized de novo miniprotein against human PDL1"}, "B2": {"name": "PDL1Bind1_E39C-AF594 (designed binder)", "chain": "DEDTDRVFELLNEFNELREEGDPERAREVLEEAERLAKC(AF594)LSDPTLESFVQAIKRVY"}, "B3": {"name": "EpcamBind1_cb4 (designed binder)", "chain": "DEERLRELVEELVKELGLSERYKRTLERHLRTALEQGYDEEQIRMNLEQLAQQAREI", "notes": "Optimized de novo miniprotein (three helices) against human EpCAM"}, "B4": {"name": "gs linked dimer of EpCAMBind1_cterm_cys (designed binder)", "chain": "DEERLRELVEELVKELGLSERYKRTLERHLRTALEQGYDEEQIRMNLEQLAQQAREIGGSGGSDEERLRELVEELVKELGLSERYKRTLERHLRTALEQGYDEEQIRMNLEQLAQQAREI", "notes": "also called EpCAM1_dimer"}, "B5": {"name": "gs linked dimer of EpCAMBind1_cterm_cys: gs linked fusion dimer of EpCAMBind1; possibly related to EpCAM1_dimer, SEQ ID NO:18 (protein)", "chain": "B4 chain"}, "B6": {"name": "Pdl1Bind (designed binder)", "chain": "DEDTRRVMELLHEASELREEGDPERAREVLEEAERLAKELGDPSLERFVQAHKRVY"}, "B7": {"name": "EpcamBind2_cb10 (designed binder)", "chain": "DEVQHEVHELMVRIHSLVVRGNPEEARKLLEELEELAKKTNNPSYHIAVEALEHVIN", "notes": "Optimized de novo miniprotein against human EpCAM"}, "B8": {"name": "EpcamBind2 (designed binder)", "chain": "B7 chain with M11F, H15Q, S16E, T40Y, N42D, Y45L, H54R"}},
  "key": {"PDL1+SKOV3 cells": {"system": "PDL1+SKOV3 cells", "assay": "Cell binding assay with AF594-labeled binder, SKOV3 cells", "type": "cell-based, human", "experimental": "FIG. 3. Cell binding assay. Binding of control antibodies are shown on the top and the binding for the designed binders are shown the bottom. […] These proteins bind their targets with low to mid nanomolar affinities based on octet data (see FIG. 2A-C). […] The rest of the designs with and without conjugated AF594 are well behaved, remain folded to 60-70° C., and completely refold upon cooling to room temperature. We show sequence, secondary structure information, and interface positions for EpcamBind1_cb4, EpcamBind2_cb10, and, PDL1Bind_cb6 in FIG. 5."}, "[1]": {"molecular_target": "T1, human programmed death-ligand 1 (PDL1) receptor, extracellular portion (human, UniProt Q9NZQ7 19-238)", "T1 construct": "extracellular domain; also called human PDL1", "T1 sequence (Q9NZQ7 19-238)": "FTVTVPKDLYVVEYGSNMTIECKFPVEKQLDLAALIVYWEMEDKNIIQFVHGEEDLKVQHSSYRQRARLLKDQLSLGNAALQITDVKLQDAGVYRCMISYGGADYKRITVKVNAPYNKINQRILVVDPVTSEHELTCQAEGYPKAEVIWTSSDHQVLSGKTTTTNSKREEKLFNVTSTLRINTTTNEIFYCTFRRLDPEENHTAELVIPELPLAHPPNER", "assay": "Octet (BLI), steady state analysis"}, "[2]": {"molecular_target": "T2, PDL1 on PDL1+ SKOV3 cells (human, UniProt Q9NZQ7 19-290)", "T2 construct": "whole, on cells", "T2 sequence (Q9NZQ7 19-290)": "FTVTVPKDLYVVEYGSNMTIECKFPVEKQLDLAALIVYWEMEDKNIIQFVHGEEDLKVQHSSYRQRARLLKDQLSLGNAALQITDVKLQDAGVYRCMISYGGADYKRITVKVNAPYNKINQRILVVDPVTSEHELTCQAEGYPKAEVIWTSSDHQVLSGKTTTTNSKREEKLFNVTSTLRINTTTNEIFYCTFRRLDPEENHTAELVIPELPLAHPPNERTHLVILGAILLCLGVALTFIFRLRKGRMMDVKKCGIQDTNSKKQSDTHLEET", "assay": "flow cytometry on PDL1 (+) cells (PDL1+ SKOV3), binder at 500 nM and 5 uM by the legend, fluorescence at 561 nm"}, "[3]": {"molecular_target": "T3, human epithelial cell adhesion molecule (EpCAM) receptor, extracellular portion (human, UniProt P16422 24-265)", "T3 construct": "extracellular domain; also called human EpCAM receptor", "T3 sequence (looked up)": "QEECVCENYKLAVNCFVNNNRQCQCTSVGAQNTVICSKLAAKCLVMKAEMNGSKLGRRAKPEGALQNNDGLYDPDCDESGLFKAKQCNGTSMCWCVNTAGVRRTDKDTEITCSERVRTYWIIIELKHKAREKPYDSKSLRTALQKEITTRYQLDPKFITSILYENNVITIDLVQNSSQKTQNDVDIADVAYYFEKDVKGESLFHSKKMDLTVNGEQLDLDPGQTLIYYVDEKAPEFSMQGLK", "assay": "Octet (BLI), kinetic fitting to association and dissociation; binder 100 nM to 1.56 nM", "experimental": "FIG. 2A. Octet data for EpcamBind1_cb4. […] Concentrations span a range from 100 nM (top curve) to 1.56 nM (bottom curve) by two-fold dilution.\n(§1) In one embodiment of any of the polypeptides of the disclosure, the polypeptide bind to their targets with nanomolar affinity as measured by octet. In the octet experiments, the target protein is immobilized onto an octet sensor and the kinetics of the binder binding to the target are measured over a range of binder concentrations to determine the binders affinity."}, "[4]": {"molecular_target": "T3, human epithelial cell adhesion molecule …", "assay": "Octet (BLI), kinetic fitting to association and dissociation; binder 20 nM to 0.5 nM", "experimental": "FIG. 4. Octet data for gs linked dimer of EpCAMBind1_cterm_cys. […] Concentrations from top curve to bottom curve are 20 nM, 10 nM, 5 nM, 2.5 nM, 1 nM and 0.5 nM.\nas §1"}, "human EpCAM receptor": {"molecular_target": "T4, human EpCAM receptor (Homo sapiens, UniProt P16422)", "T4 sequence (P16422 24-265 limits assumed)": "T3 sequence (looked up)", "assay": "Octet binding to immobilized human EpCAM", "experimental": "as §1"}, "[5]": {"molecular_target": "T1, human programmed death-ligand 1 (PDL1) …", "assay": "yeast surface display screen"}, "[6]": {"molecular_target": "T3, human epithelial cell adhesion molecule …", "assay": "Octet (BLI), kinetic fitting to association and dissociation; binder 1000 nM to 15.6 nM", "experimental": "FIG. 2B. Octet data for EpcamBind2_cb10. […] Concentrations span a range from 1000 nM (top curve) to 15.6 nM (bottom curve) by two-fold dilution.\nas §1"}, "[7]": {"molecular_target": "T3, human epithelial cell adhesion molecule …", "assay": "yeast surface display screen"}},
  "note": "Numbering of substitutions follows the chain as printed. Where no end group is shown, it is not given here. AF594 = Alexa Fluor 594",
  "data": [
    {"molecule": "PDL1Bind1_E39C-AF594 (DEDTDRVFELLNEFNELREEGDPERAREVLEEAERLAKCLSDPTLESFVQAIKRVY)", "values": [
      {"measurement": "binding to PDL1+SKOV3 cells", "setting": "PDL1+SKOV3 cells; 500 nM and 5 uM", "result": "specifically binds"},
      {"measurement": "nonspecific binding to PDL1− cells", "setting": "PDL1+SKOV3 cells; 5 uM, comparable to control antibody", "result": "some minor nonspecific binding"}
    ]},
    {"molecule": "B1", "values": [
      {"measurement": "Kd", "setting": "[1]", "result": 2, "unit": "nM"}
    ]},
    {"molecule": "B2", "values": [
      {"measurement": "binding result", "setting": "[2]", "result": "binds"}
    ]},
    {"molecule": "B3", "values": [
      {"measurement": "Kd", "setting": "[3]", "result": 5.6, "unit": "nM"}
    ]},
    {"molecule": "B4", "values": [
      {"measurement": "Kd", "setting": "[4]", "result": "< 0.01", "unit": "nM"}
    ]},
    {"molecule": "B5", "values": [
      {"measurement": "binding affinity in words, EpCAM", "setting": "human EpCAM receptor", "result": "low picomolar"},
      {"measurement": "estimated Kd", "setting": "human EpCAM receptor; kinetic fitting to association and dissociation, 20 nM to 0.5 nM", "result": "< 0.01", "unit": "nM"}
    ]},
    {"molecule": "B6", "values": [
      {"measurement": "binding result", "setting": "[5]", "result": "binds"}
    ]},
    {"molecule": "B7", "values": [
      {"measurement": "Kd", "setting": "[6]", "result": 500, "unit": "nM"}
    ]},
    {"molecule": "B8", "values": [
      {"measurement": "binding result", "setting": "[7]", "result": "binds"}
    ]}
  ]
}
